Source: article PMC7116888 (Nature, 2020)
Each block holds one binder with its values, some of them ahead of it.

Assays:
[1] = target: the molecule itself; experiment: cryo-EM structure
[2] = target: T1, α-factor-bound Ste2 (Ste2 dimer purified with α-factor) (Saccharomyces cerevisiae, UniProt D6VTK4 1-431, N-acetylglucosamine modelled at Asn25); experiment: cryo-EM structure
[3] = target: T2, Ste4-Ste18 dimer (βγ dimer) (Saccharomyces cerevisiae, UniProt P18851 1-423; P18852 1-110, C106S | C107S); experiment: SEC
T2 sequence (looked up) 1: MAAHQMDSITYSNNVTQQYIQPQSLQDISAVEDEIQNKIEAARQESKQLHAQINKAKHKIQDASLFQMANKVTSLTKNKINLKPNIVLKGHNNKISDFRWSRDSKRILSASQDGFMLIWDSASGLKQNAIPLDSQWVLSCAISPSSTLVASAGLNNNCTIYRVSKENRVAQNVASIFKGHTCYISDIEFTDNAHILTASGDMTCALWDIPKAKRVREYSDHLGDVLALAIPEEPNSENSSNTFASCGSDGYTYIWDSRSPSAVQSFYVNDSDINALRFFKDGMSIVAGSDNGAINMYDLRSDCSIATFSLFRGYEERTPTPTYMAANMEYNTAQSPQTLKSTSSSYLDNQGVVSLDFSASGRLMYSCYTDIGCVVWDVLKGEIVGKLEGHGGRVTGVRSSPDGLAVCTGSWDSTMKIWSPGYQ
T2 sequence (looked up) 2: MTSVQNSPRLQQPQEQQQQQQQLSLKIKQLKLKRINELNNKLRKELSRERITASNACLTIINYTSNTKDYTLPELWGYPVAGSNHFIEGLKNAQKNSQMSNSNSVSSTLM

[4] = target: T1, α-factor-bound Ste2 (Ste2 dimer …); experiment: SEC-MALS

B1: Ste2 (wild-type Saccharomyces cerevisiae pheromone receptor, residues 1-431), purified (receptor, UniProt D6VTK4 1-431, looked up)
chain: MSDAAPSLSNLFYDPTYNPGQSTINYTSIYGNGSTITFDELQGLVNSTVTQAIMFGVRCGAAALTLIVMWMTSRSRKTPIFIINQVSLFLIILHSALYFKYLLSNYSSVTYALTGFPQFISRGDVHVYGATNIIQVLLVASIETSLVFQIKVIFTGDNFKRIGLMLTSISFTLGIATVTMYFVSAVKGMIVTYNDVSATQDKYFNASTILLASSINFMSFVLVVKLILAIRSRRFLGLKQFDSFHILLIMSCQSLLVPSIIFILAYSLKPNQGTDVLTTVATLLAVLSLPLSSMWATAANNASKTNTITSDFTTSTDRFYPGTLSSFQTDSINNDAKSSLRSRLYDLYPRRKETTSDKHSERTFVSETADDIEKNQFYQLPTPTSSKNTRIGPFADASYKEGEVEPVDMYTPDTAADEEARKFWTEDNNNL
modifications: N-acetylglucosamine modelled at Asn25
stoichiometry N [1]: 2

stoichiometry N [2]: 2 G protein heterotrimers per Ste2 homodimer
B2: mini-Gpa1 heterotrimer (mini-Gpa1-Ste4-Ste18) (complex, Saccharomyces cerevisiae)
chain 1: TVSTQTIGDESDPFLQNKRANDVIEQSLQLEKQRDKNEIKLLLLGADNSGKSTVLKQLKLLHGGSGGSGGTTGITETEFNIGSSKFKVLDAGGQRSERKKWIHCFEGITAVLFVLDMSDYNRMHESIMLFDTLLNSKWFKDTPFILFLNKIDLFEEKVKSMPIRKYFPDYQGRVGDAEAGLKYFEKIFLSLNKTNKPIYVKRTCATDTQTAKFILSAVTDLIIQQNLKKIGII
chain 2: MAAHQMDSITYSNNVTQQYIQPQSLQDISAVEDEIQNKIEAARQESKQLHAQINKAKHKIQDASLFQMANKVTSLTKNKINLKPNIVLKGHNNKISDFRWSRDSKRILSASQDGFMLIWDSASGLKQNAIPLDSQWVLSCAISPSSTLVASAGLNNNCTIYRVSKENRVAQNVASIFKGHTCYISDIEFTDNAHILTASGDMTCALWDIPKAKRVREYSDHLGDVLALAIPEEPNSENSSNTFASCGSDGYTYIWDSRSPSAVQSFYVNDSDINALRFFKDGMSIVAGSDNGAINMYDLRSDCSIATFSLFRGYEERTPTPTYMAANMEYNTAQSPQTLKSTSSSYLDNQGVVSLDFSASGRLMYSCYTDIGCVVWDVLKGEIVGKLEGHGGRVTGVRSSPDGLAVCTGSWDSTMKIWSPGYQ
chain 3: MTSVQNSPRLQQPQEQQQQQQQLSLKIKQLKLKRINELNNKLRKELSRERITASNACLTIINYTSNTKDYTLPELWGYPVAGSNHFIEGLKNAQKNSQMSNSNSVSSTLM

binding result [3]: binds
B3: wild type Gpa1 (S. cerevisiae G protein α-subunit) (natural protein, Saccharomyces cerevisiae, UniProt P08539 1-472, looked up)
chain: MGCTVSTQTIGDESDPFLQNKRANDVIEQSLQLEKQRDKNEIKLLLLGAGESGKSTVLKQLKLLHQGGFSHQERLQYAQVIWADAIQSMKILIIQARKLGIQLDCDDPINNKDLFACKRILLKAKALDYINASVAGGSDFLNDYVLKYSERYETRRRVQSTGRAKAAFDEDGNISNVKSDTDRDAETVTQNEDADRNNSSRINLQDICKDLNQEGDDQMFVRKTSREIQGQNRRNLIHEDIAKAIKQLWNNDKGIKQCFARSNEFQLEGSAAYYFDNIEKFASPNYVCTDEDILKGRIKTTGITETEFNIGSSKFKVLDAGGQRSERKKWIHCFEGITAVLFVLAMSEYDQMLFEDERVNRMHESIMLFDTLLNSKWFKDTPFILFLNKIDLFEEKVKSMPIRKYFPDYQGRVGDAEAGLKYFEKIFLSLNKTNKPIYVKRTCATDTQTMKFVLSAVTDLIIQQNLKKIGII

stoichiometry N [4]: 2 G proteins per Ste2 dimer
B4: wild type Gpa1 heterotrimer (Gpa1-Ste4-Ste18) (complex, Saccharomyces cerevisiae)
chain 1: MGCTVSTQTIGDESDPFLQNKRANDVIEQSLQLEKQRDKNEIKLLLLGAGESGKSTVLKQLKLLHQGGFSHQERLQYAQVIWADAIQSMKILIIQARKLGIQLDCDDPINNKDLFACKRILLKAKALDYINASVAGGSDFLNDYVLKYSERYETRRRVQSTGRAKAAFDEDGNISNVKSDTDRDAETVTQNEDADRNNSSRINLQDICKDLNQEGDDQMFVRKTSREIQGQNRRNLIHEDIAKAIKQLWNNDKGIKQCFARSNEFQLEGSAAYYFDNIEKFASPNYVCTDEDILKGRIKTTGITETEFNIGSSKFKVLDAGGQRSERKKWIHCFEGITAVLFVLAMSEYDQMLFEDERVNRMHESIMLFDTLLNSKWFKDTPFILFLNKIDLFEEKVKSMPIRKYFPDYQGRVGDAEAGLKYFEKIFLSLNKTNKPIYVKRTCATDTQTMKFVLSAVTDLIIQQNLKKIGII
chain 2: MAAHQMDSITYSNNVTQQYIQPQSLQDISAVEDEIQNKIEAARQESKQLHAQINKAKHKIQDASLFQMANKVTSLTKNKINLKPNIVLKGHNNKISDFRWSRDSKRILSASQDGFMLIWDSASGLKQNAIPLDSQWVLSCAISPSSTLVASAGLNNNCTIYRVSKENRVAQNVASIFKGHTCYISDIEFTDNAHILTASGDMTCALWDIPKAKRVREYSDHLGDVLALAIPEEPNSENSSNTFASCGSDGYTYIWDSRSPSAVQSFYVNDSDINALRFFKDGMSIVAGSDNGAINMYDLRSDCSIATFSLFRGYEERTPTPTYMAANMEYNTAQSPQTLKSTSSSYLDNQGVVSLDFSASGRLMYSCYTDIGCVVWDVLKGEIVGKLEGHGGRVTGVRSSPDGLAVCTGSWDSTMKIWSPGYQ
chain 3: MTSVQNSPRLQQPQEQQQQQQQLSLKIKQLKLKRINELNNKLRKELSRERITASNACLTIINYTSNTKDYTLPELWGYPVAGSNHFIEGLKNAQKNSQMSNSNSVSSTLM
